Literature values, collected in patent US20070231406A1, “Use of gallium to treat biofilm-associated infections” (priority 2006, published 2007).

Tested on: Pseudomonas aeruginosa biofilm
Settings: 20 μg/ml lactoferrin

B1: lactoferrin (protein, UniProt P02788 20-710, looked up)
Lactotransferrin: GRRRSVQWCAVSQPEATKCFQWQRNMRKVRGPPVSCIKRDSPIQCIQAIAENRADAVTLDGGFIYEAGLAPYKLRPVAAEVYGTERQPRTHYYAVAVVKKGGSFQLNELQGLKSCHTGLRRTAGWNVPIGTLRPFLNWTGPPEPIEAAVARFFSASCVPGADKGQFPNLCRLCAGTGENKCAFSSQEPYFSYSGAFKCLRDGAGDVAFIRESTVFEDLSDEAERDEYELLCPDNTRKPVDKFKDCHLARVPSHAVVARSVNGKEDAIWNLLRQAQEKFGKDKSPKFQLFGSPSGQKDLLFKDSAIGFSRVPPRIDSGLYLGSGYFTAIQNLRKSEEEVAARRARVVWCAVGEQELRKCNQWSGLSEGSVTCSSASTTEDCIALVLKGEADAMSLDGGYVYTAGKCGLVPVLAENYKSQQSSDPDPNCVDRPVEGYLAVAVVRRSDTSLTWNSVKGKKSCHTAVDRTAGWNIPMGLLFNQTGSCKFDEYFSQSCAPGSDPRSNLCALCIGDEQGENKCVPNSNERYYGYTGAFRCLAENAGDVAFVKDVTVLQNTDGNNNEAWAKDLKLADFALLCLDGKRKPVTEARSCHLAMAPNHAVVSRMDKVERLKQVLLHQQAKFGRNGSDCPDKFCLFQSETKNLLFNDNTECLARLHGKTTYEKYLGPQYVAGITNLKKCSTSPLLEACEFLRK
Pseudomonas aeruginosa biofilm formation: inhibited
